In paper PMC9888200:

Legend:
[1] = biological target: Biotinylated MPER peptide (HIV-1); assay: BLI; biotinylated MPER peptide (30 nM) loaded on streptavidin biosensors to 0.6 nm, Octet RED96; Fabs at 50 and 100 nM; 0.5% BSA in PBS with 0.05% Tween 20; association 5 min, dissociation 10 min; values of the two concentrations averaged
recombinant FcγRI = recombinant FcγRI (UniProt P12314); assay: ELISA; conditions: highest mAb concentration, about 200 nM (est. from x axis); parent: est. 0.73; read off a plot
Chain of UniProt P12314 (P12314 16-292): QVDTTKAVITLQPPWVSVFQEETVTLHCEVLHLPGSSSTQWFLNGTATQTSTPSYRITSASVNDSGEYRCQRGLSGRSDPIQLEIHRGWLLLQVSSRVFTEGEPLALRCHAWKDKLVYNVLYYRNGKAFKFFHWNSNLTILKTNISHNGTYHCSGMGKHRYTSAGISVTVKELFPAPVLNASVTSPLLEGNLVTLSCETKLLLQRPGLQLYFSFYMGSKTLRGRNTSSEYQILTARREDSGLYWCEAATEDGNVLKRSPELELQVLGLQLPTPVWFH

10E8 Fab showed a Kd [1] of 3.8 nM and a koff [1] of 0.0016 s⁻¹.

Work on “10E8v4 WT antibody (IgG) L234A; L235A; P329G” yielded a response (Absorbance at 450nm) (recombinant FcγRI) of 0.05.
